Measured values from article PMC7508794, “IRES-targeting small molecule inhibits enterovirus 71 replication via allosteric stabilization of a ternary complex”.

Experiments:
AUF1-RRM1,2 [1] = biological target: T1, AUF1-RRM1,2 (UniProt Q14103-4 70-239); test: ITC; DMA-135, RNA:DMA 1:3.3; ITC: 10 mM K2HPO4, 20 mM KCl, 0.5 mM EDTA, 4 mM BME, pH 6.5, 25 C; lysate pull-down: 5 mM HEPES pH 7.1, 40 mM KCl, 0.1 mM EDTA, 2 mM MgCl2, 2 mM DTT, 0.25 mg/ml heparin, 30 C; conditions: protein: recombinant; tags: N-terminal His6, cleaved with TEV; hairpin with 5-nt bulge and 7-nt apical loop
T1 sequence (Q14103 other isoform, or with tags, fused parts or gaps): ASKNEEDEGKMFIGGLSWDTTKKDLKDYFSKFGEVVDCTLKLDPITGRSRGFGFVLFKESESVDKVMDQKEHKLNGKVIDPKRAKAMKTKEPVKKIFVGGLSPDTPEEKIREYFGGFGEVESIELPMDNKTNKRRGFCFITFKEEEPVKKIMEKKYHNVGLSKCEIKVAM

AUF1-RRM1,2 [2] = biological target: T1, AUF1-RRM1,2; test: ITC; DMA-135, RNA:DMA 1:1.6; ITC: 10 mM K2HPO4, 20 mM KCl, 0.5 mM EDTA, 4 mM BME, pH 6.5, 25 C; lysate pull-down: 5 mM HEPES pH 7.1, 40 mM KCl, 0.1 mM EDTA, 2 mM MgCl2, 2 mM DTT, 0.25 mg/ml heparin, 30 C; conditions: protein: recombinant; tags: N-terminal His6, cleaved with TEV; hairpin with 5-nt bulge and 7-nt apical loop
AUF1-RRM1,2 [3] = biological target: T1, AUF1-RRM1,2; test: ITC; no small molecule; ITC: 10 mM K2HPO4, 20 mM KCl, 0.5 mM EDTA, 4 mM BME, pH 6.5, 25 C; lysate pull-down: 5 mM HEPES pH 7.1, 40 mM KCl, 0.1 mM EDTA, 2 mM MgCl2, 2 mM DTT, 0.25 mg/ml heparin, 30 C; conditions: protein: recombinant; tags: N-terminal His6, cleaved with TEV; hairpin with 5-nt bulge and 7-nt apical loop
A1-RRM1,2 (UP1) = A1-RRM1,2 (UP1) (UniProt P09651 1-196); test: as above; conditions: protein: recombinant; tags: C-terminal His6; hairpin with 5-nt bulge and 7-nt apical loop
Chain of A1-RRM1,2 (UP1) (P09651 1-196): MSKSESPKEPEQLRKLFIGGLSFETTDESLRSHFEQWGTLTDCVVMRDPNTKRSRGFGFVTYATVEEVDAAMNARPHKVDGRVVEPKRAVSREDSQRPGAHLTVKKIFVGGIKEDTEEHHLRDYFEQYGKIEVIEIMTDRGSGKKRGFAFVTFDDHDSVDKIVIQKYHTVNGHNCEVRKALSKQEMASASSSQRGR

AUF1-RRM1,2 [4] = biological target: T1, AUF1-RRM1,2; test: ITC; DMA-135, RNA:DMA 1:5; ITC: 10 mM K2HPO4, 20 mM KCl, 0.5 mM EDTA, 4 mM BME, pH 6.5, 25 C; lysate pull-down: 5 mM HEPES pH 7.1, 40 mM KCl, 0.1 mM EDTA, 2 mM MgCl2, 2 mM DTT, 0.25 mg/ml heparin, 30 C; conditions: protein: recombinant; tags: N-terminal His6, cleaved with TEV; hairpin with 5-nt bulge and 7-nt apical loop
AUF1-RRM1,2 [5] = biological target: T1, AUF1-RRM1,2; test: ITC; DMA-001, RNA:DMA 1:5; ITC: 10 mM K2HPO4, 20 mM KCl, 0.5 mM EDTA, 4 mM BME, pH 6.5, 25 C; lysate pull-down: 5 mM HEPES pH 7.1, 40 mM KCl, 0.1 mM EDTA, 2 mM MgCl2, 2 mM DTT, 0.25 mg/ml heparin, 30 C; conditions: protein: recombinant; tags: N-terminal His6, cleaved with TEV; hairpin with 5-nt bulge and 7-nt apical loop
AUF1-RRM1,2 [6] = biological target: T1, AUF1-RRM1,2; test: ITC; DMA-155, RNA:DMA 1:5; ITC: 10 mM K2HPO4, 20 mM KCl, 0.5 mM EDTA, 4 mM BME, pH 6.5, 25 C; lysate pull-down: 5 mM HEPES pH 7.1, 40 mM KCl, 0.1 mM EDTA, 2 mM MgCl2, 2 mM DTT, 0.25 mg/ml heparin, 30 C; conditions: protein: recombinant; tags: N-terminal His6, cleaved with TEV; hairpin with 5-nt bulge and 7-nt apical loop

Q: How did the Kd (AUF1-RRM1,2 [1]) turn out when GGAUCAAUAGCAGGUGUGGCACACCAGUCAUACCUUGAUCC (structured_RNA) [EV71 SLII (SLII2231)] was run?
A: 140 ± 2 nM

Q: What about the Kd (AUF1-RRM1,2 [2]) of the same binder?
A: 240 ± 72 nM

Q: What about the Kd (AUF1-RRM1,2 [3]) of the same binder?
A: 336 ± 44 nM

Q: Does GGAUCAAUAGCAGGUGUGGCACACCAGUCAUACCUUGAUCC (structured_RNA) [EV71 SLII (SLII2231)] bind (A1-RRM1,2 (UP1))?
A: binds

Q: What about the Kd (AUF1-RRM1,2 [4]) of the same binder?
A: 134 ± 7 nM

Q: What about the Kd (AUF1-RRM1,2 [5]) of the same binder?
A: 306 ± 4 nM

Q: What about the Kd (AUF1-RRM1,2 [6]) of the same binder?
A: 390 ± 7 nM
